Experimental data from paper PMC2173577.

Target: Grb2, endogenous in Cos-7 cells (African green monkey (endogenous in Cos-7))
Assay: co-IP

- fold excess of the Sos-1–Grb2 complex over the Sos-1–E3b1 complex (co-IP): 10 fold
Substance: Sos-1, endogenous in Cos-7 cells (natural protein)
